Measured values reported in patent US7514594B2, “Transgenic animal model of bone mass modulation” (Wyeth, priority 2003, dated 2009).
One block for each molecule: values may come before it.

How the values were obtained:
Wnt pathway = assay: Xenopus embryo assay of Wnt pathway stimulation; format: in vivo; details: for stimulation of the Wnt pathway: in combination with Wnt5a
From the text: Axin was also identified from the two hybrid experiments. This protein is involved in inhibition of the Wnt signaling pathway and interacts with the tumor suppressor APC. There is a link here with the focal adhesion signaling described above: one common step in the two pathways involves inhibition of glycogen synthase kinase 3, which in turn results in the activation of β-catenin/Lef-1 and AP-1 transcription factors. Axin/APC are involved in this as well as integrin linked kinase. The Wnt pathway has a role in determining cell fates during embryogenesis. If inappropriately activated, the Wnt pathway may also lead to cancer. The Wnt pathway also seems to have a role in cytoskeletal rearrangements. […] A model depicting LRP5 involvement in focal adhesion signaling is depicted in FIG. 15.

[1] = tested on: ovariectomized het and ntg mice; assay: ovx-induced osteopenia in het and ntg mice treated with 17β-estradiol; format: in vivo, mouse; details: both het and ntg; ovariectomized at 9 weeks; 10 μg/kg/day 17β-estradiol for 35 days
Experimental: To determine whether the mutation had any effect on ovx-induced osteopenia, het and ntg mice were ovariectomized at 9 weeks of age and treated for 35 days with vehicle or 10 μg/kg/day 17β-estradiol (E2). The percent change in total, trabecular and cortical density in het and ntg ovx mice from those values in their respective sham operated controls were determined. […] Ovariectomy induced a 14.3% decrease in total BMD (696±6 to 597±7 mg/cm^3) and a 26.3% decrease in trabecular BMD (445±9 to 328±7 mg/cm^3) in the het group and a 14.9% decrease in total BMD (470±10 to 400±7 mg/cm^3) and 37.6% decrease in trabecular BMD (132±4 to 82±2 mg/cm^3) in the ntg group.

[2] = tested on: LRP5-mediated Wnt signaling; assay: Dkk-1 repression of LRP5-mediated Wnt signaling; format: cell-based
From the text: (§1) 1, 2002, and 60/361,293 filed Mar. 4, 2002. This observation is of particular interest because the HBM mutation in LRP5 is a gain of function or activation mutation. That is, Wnt signaling, via the canonical pathway, is enhanced with HBM versus LRP5. Not wishing to be bound by theory, it is believed that this interaction provides an explanation of the developmental signaling differences between HBM and the more common LRP5/LRP6.

[3] = tested on: HBM-mediated Wnt signaling; assay: Dkk-1 repression of HBM-mediated Wnt signaling; format: cell-based; details: compared with LRP5-mediated signaling
From the text: as §1

LRP5 = LRP5 (Homo sapiens, UniProt O75197); assay: Dkk-1 binding to LRP5; details: observed by the inventors
LRP5, sequence (O75197 32-1615): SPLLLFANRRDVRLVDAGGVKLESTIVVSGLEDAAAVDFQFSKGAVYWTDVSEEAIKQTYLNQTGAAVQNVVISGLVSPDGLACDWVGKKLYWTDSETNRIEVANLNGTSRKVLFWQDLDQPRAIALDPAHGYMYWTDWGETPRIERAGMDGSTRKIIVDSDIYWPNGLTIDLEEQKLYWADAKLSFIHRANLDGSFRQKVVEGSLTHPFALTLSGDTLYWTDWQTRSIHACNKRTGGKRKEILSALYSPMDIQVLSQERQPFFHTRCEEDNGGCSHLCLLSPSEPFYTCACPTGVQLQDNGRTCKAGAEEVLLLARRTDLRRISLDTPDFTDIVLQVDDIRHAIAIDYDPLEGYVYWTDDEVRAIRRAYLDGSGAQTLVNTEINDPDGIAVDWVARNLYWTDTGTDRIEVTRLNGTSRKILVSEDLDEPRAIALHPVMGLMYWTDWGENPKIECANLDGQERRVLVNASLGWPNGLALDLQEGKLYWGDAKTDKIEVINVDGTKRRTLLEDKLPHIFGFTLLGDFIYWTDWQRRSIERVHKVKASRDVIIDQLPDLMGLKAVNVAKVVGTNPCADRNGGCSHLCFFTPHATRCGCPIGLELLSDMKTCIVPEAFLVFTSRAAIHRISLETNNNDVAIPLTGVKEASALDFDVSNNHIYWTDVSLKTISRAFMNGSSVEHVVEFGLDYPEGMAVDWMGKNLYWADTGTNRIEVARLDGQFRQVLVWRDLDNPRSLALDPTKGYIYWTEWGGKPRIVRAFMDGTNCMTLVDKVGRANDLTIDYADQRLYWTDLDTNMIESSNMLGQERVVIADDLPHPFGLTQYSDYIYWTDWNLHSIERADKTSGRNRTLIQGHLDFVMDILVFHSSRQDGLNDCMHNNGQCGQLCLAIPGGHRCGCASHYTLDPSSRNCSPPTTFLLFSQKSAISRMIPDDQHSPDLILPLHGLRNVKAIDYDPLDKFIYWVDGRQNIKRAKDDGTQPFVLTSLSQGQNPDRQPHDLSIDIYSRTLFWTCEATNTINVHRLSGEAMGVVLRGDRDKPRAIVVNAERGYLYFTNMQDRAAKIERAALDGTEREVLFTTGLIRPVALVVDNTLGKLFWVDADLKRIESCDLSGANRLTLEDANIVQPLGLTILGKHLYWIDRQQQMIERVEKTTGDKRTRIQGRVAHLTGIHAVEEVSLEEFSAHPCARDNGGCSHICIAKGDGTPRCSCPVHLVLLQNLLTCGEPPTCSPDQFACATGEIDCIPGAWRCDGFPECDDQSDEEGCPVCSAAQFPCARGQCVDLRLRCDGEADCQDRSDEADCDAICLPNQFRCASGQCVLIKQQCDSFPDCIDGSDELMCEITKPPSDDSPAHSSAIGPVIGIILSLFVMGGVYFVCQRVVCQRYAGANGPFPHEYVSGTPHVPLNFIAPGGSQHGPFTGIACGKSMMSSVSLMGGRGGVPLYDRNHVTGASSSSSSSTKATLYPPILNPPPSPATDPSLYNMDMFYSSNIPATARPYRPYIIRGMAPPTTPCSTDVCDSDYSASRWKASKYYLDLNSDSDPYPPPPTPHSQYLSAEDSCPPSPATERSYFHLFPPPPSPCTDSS
From the text: 1, 2002, and 60/361,293 filed Mar. 4, 2002. The two-hybrid screen is a common procedure in the art, which is described, for example, by Gietz et al., Mol. Cell. Biochem. 172:67-79 (1997); Young, Biol. Reprod. 58:302-11 (1998); Brent and Finley, Ann. Rev. Genet. 31:663-704 (1997); and Lu and Hannon, eds., Yeast Hybrid Technologies, Eaton Publishing, Natick Mass., (2000).
(§2) It may be that the reduced effectiveness of Dkk inhibition of LRP5 which is observed for HBM is not necessarily mediated by enhancing or preventing the binding of Dkk to LRP5/LRP6/HBM. More than one mechanism may be involved. […] Further, it has been observed that different members of the Dkk family differentially affect LRP5/LRP6/HBM activity. Rather, the more preferred approach is to develop a drug or therapy which results in the desired protective benefits by reproducing as nearly as possible the subtle effect of HBM. The ability to refine and test potential drugs and therapies by comparing their effects to an animal model of HBM is among the major features of the present invention.

LRP6 [4] = molecular target: T1, LRP6 (Homo sapiens, UniProt O75581); assay: Dkk-1 binding to LRP6; details: observed by the inventors
T1 sequence (O75581 20-1613, species assumed): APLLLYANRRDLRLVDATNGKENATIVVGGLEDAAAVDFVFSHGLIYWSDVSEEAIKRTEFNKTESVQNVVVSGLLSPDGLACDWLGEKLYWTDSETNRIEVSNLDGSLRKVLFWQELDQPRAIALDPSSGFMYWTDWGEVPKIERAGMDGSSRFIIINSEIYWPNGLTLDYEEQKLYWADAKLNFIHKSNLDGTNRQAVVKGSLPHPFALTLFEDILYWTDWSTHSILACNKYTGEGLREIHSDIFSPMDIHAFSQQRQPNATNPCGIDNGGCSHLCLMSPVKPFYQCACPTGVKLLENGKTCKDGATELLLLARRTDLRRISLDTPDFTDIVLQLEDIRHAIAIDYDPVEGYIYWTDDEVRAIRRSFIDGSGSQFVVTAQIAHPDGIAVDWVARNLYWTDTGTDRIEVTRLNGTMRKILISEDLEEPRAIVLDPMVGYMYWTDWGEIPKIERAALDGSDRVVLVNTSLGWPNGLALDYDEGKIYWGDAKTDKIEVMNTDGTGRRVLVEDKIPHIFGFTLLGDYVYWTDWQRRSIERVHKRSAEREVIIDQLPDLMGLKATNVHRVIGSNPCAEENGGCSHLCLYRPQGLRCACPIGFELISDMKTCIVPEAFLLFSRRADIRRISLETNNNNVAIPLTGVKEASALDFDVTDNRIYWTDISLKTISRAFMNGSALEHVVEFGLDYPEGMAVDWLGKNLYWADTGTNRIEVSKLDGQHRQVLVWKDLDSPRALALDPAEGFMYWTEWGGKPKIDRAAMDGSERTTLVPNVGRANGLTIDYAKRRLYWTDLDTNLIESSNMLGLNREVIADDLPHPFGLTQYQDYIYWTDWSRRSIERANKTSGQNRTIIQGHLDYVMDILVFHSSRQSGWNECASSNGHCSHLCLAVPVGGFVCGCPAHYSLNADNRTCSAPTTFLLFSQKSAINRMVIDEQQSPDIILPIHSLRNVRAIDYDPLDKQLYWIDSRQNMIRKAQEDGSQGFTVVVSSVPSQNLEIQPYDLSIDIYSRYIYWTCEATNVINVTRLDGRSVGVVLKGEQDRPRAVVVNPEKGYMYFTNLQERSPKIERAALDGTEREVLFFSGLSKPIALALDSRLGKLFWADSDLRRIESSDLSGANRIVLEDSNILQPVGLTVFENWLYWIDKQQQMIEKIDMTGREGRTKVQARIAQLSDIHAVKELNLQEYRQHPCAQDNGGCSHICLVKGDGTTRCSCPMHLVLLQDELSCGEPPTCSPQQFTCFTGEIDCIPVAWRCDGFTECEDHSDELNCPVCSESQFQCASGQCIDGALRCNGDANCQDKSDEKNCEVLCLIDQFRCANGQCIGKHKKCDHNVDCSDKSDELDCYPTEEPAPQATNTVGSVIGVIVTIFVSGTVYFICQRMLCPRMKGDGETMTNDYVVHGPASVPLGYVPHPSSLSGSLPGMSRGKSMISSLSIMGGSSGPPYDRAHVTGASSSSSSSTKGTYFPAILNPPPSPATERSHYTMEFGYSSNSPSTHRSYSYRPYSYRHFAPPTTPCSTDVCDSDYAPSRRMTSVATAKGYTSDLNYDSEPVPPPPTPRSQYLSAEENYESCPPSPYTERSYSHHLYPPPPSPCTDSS
From the text: as §2

HBM = HBM (Homo sapiens, UniProt O75197, G171V); assay: Dkk-1 binding to HBM; details: observed by the inventors
HBM, sequence (O75197 32-1615 G171V): as the sequence (O75197 32-1615) above, with G140V counted along it
From the text: as §2

canonical Wnt signaling = details: cited from earlier work
[5] = tested on: LRP5 G171V transgenic (het) and non-transgenic littermate (ntg) mice; assay: hPTH treatment of LRP5 G171V transgenic and non-transgenic mice, femoral density by pQCT; format: in vivo, mouse; details: for Percent Change in Bone Mass Density After 30 Days of hPTH Treatment, cortical, ntg / Percent Change in Bone Mass Density After 30 Days of hPTH Treatment, cortical, transgenic / Percent Change in Bone Mass Density After 30 Days of hPTH Treatment, total, ntg / Percent Change in Bone Mass Density After 30 Days of hPTH Treatment, total, transgenic / Percent Change in Bone Mass Density After 30 Days of hPTH Treatment, trabecular, ntg / Percent Change in Bone Mass Density After 30 Days of hPTH Treatment, trabecular, transgenic: left femur pQCT, vs vehicle controls
Experimental: In order to further examine increases in bone density that were detected in select transgenic lines through monitoring of the animals by non-invasive bone imaging, necropsies were performed on animals of these lines at 5 and 9 weeks of age for direct bone densitometric and histologic analysis. The left femur was isolated, cleaned and positioned in an XCT Research peripheral Quantitative Computed Tomograph (pQCT; Stradtec Medizintechnik, Pforzheim, Germany). The distal end of the femur was located and pQCT scanning was initiated 2.5 mm proximal from this point for total and trabecular measurements. The pQCT scan for cortical measurements was initiated 3.5 mm proximal from the first scan (i.e., 6 mm proximal from the distal end). […] The soft tissue was automatically removed using an iterative algorithm, and the density of the remaining bone (total density) in the first slice was determined. The outer 55% of the bone was then peeled away in a concentric spiral and the density of the remaining bone (trabecular density) of the first slice was reported in mg/cm^3. In the second slice, the boundary between cortical and trabecular bone was determined using an iterative algorithm, and the density of the cortical bone was determined.
[…] Total, trabecular and cortical densities were measured in excised left femur by pQCT. PTH response was normalized to the bone densities of the vehicle group and expressed as percent change from their respective vehicle controls.

LRP6 [6] = molecular target: T1, LRP6; details: Semenov et al.; cited from earlier work
LRP6 [7] = molecular target: T1, LRP6; details: Mao et al.; cited from earlier work
[8] = extracellular domains, absence of Wnt5a
[9] = ntg animals, treatment with PTH

Molecule: LRP5: wild-type LRP5 protein (SEQ ID NO: 3)
stimulation of the Wnt pathway (Wnt pathway): modestly above the control

Molecule: C[C@]12CC[C@@H]3c4ccc(O)cc4CC[C@H]3[C@@H]1CC[C@@H]2O [E2, 17β-estradiol]
ovx-induced bone loss [1]: completely prevented

Molecule: LRP5 ECD: extracellular domain (ECD) of LRP5
stimulation of Wnt signaling (Wnt pathway; [8]): modest stimulation

Molecule: HBM: protein identical to LRP5 except for an alteration of glycine 171 to valine
stimulation of the Wnt pathway (Wnt pathway): much greater extent

binding to LRP5 (LRP5): binds | binding to LRP6 (LRP6 [4]): binds | binding to HBM (HBM): binds
Molecule: Dkk-1: protein dickkopf-1, an antagonist of the Wnt pathway
repression of LRP5-mediated Wnt signaling [2]: able to repress | repression of HBM-mediated Wnt signaling [3]: less effective | canonical Wnt signaling (canonical Wnt signaling; Bafico et al., Dkk-1 added at extremely low concentrations (30 pM)): repression

B1: human parathyroid hormone (peptide, UniProt P01270 32-115, looked up)
Parathyroid hormone: SVSEIQLMHNLGKHLNSMERVEWLRKKLQDVHNFVALGAPLAPRDAGSQRPRKKEDNVLVESHEKSLGEADKADVNVLTKAKSQ
modifications: Parathyroid hormone
notes: human parathyroid hormone (hPTH), anabolic agent
Percent Change in Bone Mass Density After 30 Days of hPTH Treatment, cortical, ntg ([5]; Female): 4% | Percent Change in Bone Mass Density After 30 Days of hPTH Treatment, cortical, transgenic ([5]; Female): −1% | Percent Change in Bone Mass Density After 30 Days of hPTH Treatment, total, ntg ([5]; Female): 18% | Percent Change in Bone Mass Density After 30 Days of hPTH Treatment, total, transgenic ([5]; Female): 30% | Percent Change in Bone Mass Density After 30 Days of hPTH Treatment, trabecular, ntg ([5]; Female): −3% | Percent Change in Bone Mass Density After 30 Days of hPTH Treatment, trabecular, transgenic ([5]; Female): 59% | Percent Change in Bone Mass Density After 30 Days of hPTH Treatment, cortical, ntg ([5]; Male, hPTH 100 mg/kg/day sc): 3% | Percent Change in Bone Mass Density After 30 Days of hPTH Treatment, cortical, transgenic ([5]; Male, hPTH 100 mg/kg/day sc): 2% | Percent Change in Bone Mass Density After 30 Days of hPTH Treatment, total, ntg ([5]; Male, hPTH 100 mg/kg/day sc): 23% | Percent Change in Bone Mass Density After 30 Days of hPTH Treatment, total, transgenic ([5]; Male, hPTH 100 mg/kg/day sc): 37% | Percent Change in Bone Mass Density After 30 Days of hPTH Treatment, trabecular, ntg ([5]; Male, hPTH 100 mg/kg/day sc): 5% | Percent Change in Bone Mass Density After 30 Days of hPTH Treatment, trabecular, transgenic ([5]; Male, hPTH 100 mg/kg/day sc): 80% | total femoral BMD ([5]; both het and ntg, treatment with PTH): significant increase | trabecular bone compartment ([5]; het animals, treatment with PTH): increase | cortical bone [5, 9]: significant increase | trabecular BMD [5, 9]: no changes

B2: Dkk-1 mutant having cysteine 220 changed to alanine: Dkk-1 mutant having cysteine 220 changed to alanine (protein, UniProt O94907 32-266, looked up, variant C220A)
Dickkopf-related protein 1: TLNSVLNSNAIKNLPPPLGGAAGHPGSAVSAAPGILYPGGNKYQTIDNYQPYPCAEDEECGTDEYCASPTRGGDAGVQICLACRKRRKRCMRHAMCCPGNYCKNGICVSSDQNHFRGEIEETITESFGNDHSTLDGYSRRTTLSSKMYHTKGQEGSVCLRSSDCASGLCCARHFWSKICKPVLKEGQVATKHRRKGSHGLEIFQRCYCGEGLSCRIQKDHHQASNSSRLHTCQRH
LRP6 binding (LRP6 [6]): abolished | repression of Wnt signaling (canonical Wnt signaling; Semenov et al.): unable to repress

B3: Dkk-2: Dkk family protein found to directly bind LRP6 (protein, UniProt Q9UBU2 34-259, looked up)
Dickkopf-related protein 2: KLNSIKSSLGGETPGQAANRSAGMYQGLAFGGSKKGKNLGQAYPCSSDKECEVGRYCHSPHQGSSACMVCRRKKKRCHRDGMCCPSTRCNNGICIPVTESILTPHIPALDGTRHRDRNHGHYSNHDLGWQNLGRPHTKMSHIKGHEGDPCLRSSDCIEGFCCARHFWTKICKPVLHQGEVCTKQRKKGSHGLEIFQRCDCAKGLSCKVWKDATYSSKARLHVCQKI
Kd (LRP6 [7]): 0.73 nM

B4: HBM ECD: extracellular domain (ECD) of HBM (protein, UniProt O75197 32-1384, looked up, variant G171V)
extracellular domain: SPLLLFANRRDVRLVDAGGVKLESTIVVSGLEDAAAVDFQFSKGAVYWTDVSEEAIKQTYLNQTGAAVQNVVISGLVSPDGLACDWVGKKLYWTDSETNRIEVANLNGTSRKVLFWQDLDQPRAIALDPAHGYMYWTDWVETPRIERAGMDGSTRKIIVDSDIYWPNGLTIDLEEQKLYWADAKLSFIHRANLDGSFRQKVVEGSLTHPFALTLSGDTLYWTDWQTRSIHACNKRTGGKRKEILSALYSPMDIQVLSQERQPFFHTRCEEDNGGCSHLCLLSPSEPFYTCACPTGVQLQDNGRTCKAGAEEVLLLARRTDLRRISLDTPDFTDIVLQVDDIRHAIAIDYDPLEGYVYWTDDEVRAIRRAYLDGSGAQTLVNTEINDPDGIAVDWVARNLYWTDTGTDRIEVTRLNGTSRKILVSEDLDEPRAIALHPVMGLMYWTDWGENPKIECANLDGQERRVLVNASLGWPNGLALDLQEGKLYWGDAKTDKIEVINVDGTKRRTLLEDKLPHIFGFTLLGDFIYWTDWQRRSIERVHKVKASRDVIIDQLPDLMGLKAVNVAKVVGTNPCADRNGGCSHLCFFTPHATRCGCPIGLELLSDMKTCIVPEAFLVFTSRAAIHRISLETNNNDVAIPLTGVKEASALDFDVSNNHIYWTDVSLKTISRAFMNGSSVEHVVEFGLDYPEGMAVDWMGKNLYWADTGTNRIEVARLDGQFRQVLVWRDLDNPRSLALDPTKGYIYWTEWGGKPRIVRAFMDGTNCMTLVDKVGRANDLTIDYADQRLYWTDLDTNMIESSNMLGQERVVIADDLPHPFGLTQYSDYIYWTDWNLHSIERADKTSGRNRTLIQGHLDFVMDILVFHSSRQDGLNDCMHNNGQCGQLCLAIPGGHRCGCASHYTLDPSSRNCSPPTTFLLFSQKSAISRMIPDDQHSPDLILPLHGLRNVKAIDYDPLDKFIYWVDGRQNIKRAKDDGTQPFVLTSLSQGQNPDRQPHDLSIDIYSRTLFWTCEATNTINVHRLSGEAMGVVLRGDRDKPRAIVVNAERGYLYFTNMQDRAAKIERAALDGTEREVLFTTGLIRPVALVVDNTLGKLFWVDADLKRIESCDLSGANRLTLEDANIVQPLGLTILGKHLYWIDRQQQMIERVEKTTGDKRTRIQGRVAHLTGIHAVEEVSLEEFSAHPCARDNGGCSHICIAKGDGTPRCSCPVHLVLLQNLLTCGEPPTCSPDQFACATGEIDCIPGAWRCDGFPECDDQSDEEGCPVCSAAQFPCARGQCVDLRLRCDGEADCQDRSDEADCDAICLPNQFRCASGQCVLIKQQCDSFPDCIDGSDELMCEITKPPSDDSPAHS
modifications: extracellular domain
stimulation of Wnt signaling (Wnt pathway; extracellular domain, presence of Wnt5a): slightly increased | stimulation of Wnt signaling (Wnt pathway; [8]): modest stimulation
